From PMC3229523, “Identification of Lactoferricin B Intracellular Targets Using an Escherichia coli Proteome Chip” (PLoS ONE, 2011)
Ends that are not written are not given here. * marks the point of attachment. Biotin = O=C1N[C@H]2[C@H](CS[C@H]2CCCCC(=O)*)N1

Molecular target: T1, NrdB (E. coli K-12, UniProt P69924 1-376)
T1 construct: NrdB, E. coli K-12
T1 sequence (looked up): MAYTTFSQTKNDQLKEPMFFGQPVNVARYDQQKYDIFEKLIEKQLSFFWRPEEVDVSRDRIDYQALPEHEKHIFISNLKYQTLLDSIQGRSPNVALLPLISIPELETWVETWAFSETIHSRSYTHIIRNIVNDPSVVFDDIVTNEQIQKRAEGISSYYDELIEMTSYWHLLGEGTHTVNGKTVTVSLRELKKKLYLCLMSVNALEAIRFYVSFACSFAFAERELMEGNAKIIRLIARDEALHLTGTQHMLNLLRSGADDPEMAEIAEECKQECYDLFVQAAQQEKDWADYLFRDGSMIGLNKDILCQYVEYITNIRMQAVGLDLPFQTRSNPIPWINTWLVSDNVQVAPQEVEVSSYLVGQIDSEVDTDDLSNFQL
Assay: peptide or protein array; E. coli proteome chip: purified His-tagged proteins printed in duplicate on Fullmoon slides, blocked with 1% BSA; 10 nM N-terminal biotinylated LfcinB with 1% BSA, room temperature, 1 h; detected with DyLight 649-labeled streptavidin, ratio to DyLight 549-labeled anti-His antibody; ProCAT normalisation, local cut-off; triplicate chips
Conditions: both partners purified

B1: N-terminal biotinylated Lactoferricin B (peptide, UniProt P24627 36-60, looked up)
peptide: Biotin-FKCRRWQWRMKKLGAPSITCVRRAF
modifications: ends and bridges not checked
notes: lactoferricin B (LfcinB), cationic antimicrobial peptide of 25 amino acids; also called biotinylated LfcinB; biotin-labeled LfcinB; source: bought: Kelowna Inc
B1: binds.
